Laboratory results taken from the RNAGym collection of RNA variant scans (doi:10.7554/elife.80360).

B1: Hairpin Ribozyme (parent)
chain: GUCCUCUUUCACGUGCGCGUGAAAGAGAGAAGUGAACCAGAGAAACACACGUUGUGGUAUAUUACCUGGUA

Variants of: B1
Assay: self-cleavage, relative activity (ratio to wild type); higher = more cleavage; co-transcriptional
For GUCCUCUUUCACGUGCGCUUGAAAGAGAGAAGUGAACCAGAGAAACUCACGUUGUGGUAUAUUACCUGGUA, the self-cleavage was 0.211. GUCCUCUUUCACGUGCGCCUGAAAGAGAGAAGUGAACCAGAUAAACACACGUUGUGGUAUAUUACCUGGUA gave a self-cleavage of 0.24. GUCCUCUUUCACGUGCGCCUGAAAGAGAGAAGUGAACCAGAGAAACACACGUUGUGGUAUAUUACCCGGUA gave a self-cleavage of 0.176. In the case of GUCCUCUUUCACGUGCGCUUGAACGAGAGAAGUGAACCAGAGAAACACACGUUGUGGUAUAUUACCUGGUA, the self-cleavage is reported as 0.79. Work on GUCCUCUUUCACGUGCGCUUGAAAGAGAGAAGUGAACCCGAGAAACACACGUUGUGGUAUAUUACCUGGUA yielded a self-cleavage of 0.502. Variant GUCCUCUUUCACGUGCGCUUGAAAGAGAGAAGUGAACCUGAGAAACACACGUUGUGGUAUAUUACCUGGUA has a self-cleavage of 0.324. GUCCUCUUUCACGUGCGCCUGAAAGAGAGAAGGGAACCAGAGAAACACACGUUGUGGUAUAUUACCUGGUA gave a self-cleavage of 0.0947. For GUCCUCUUUCACGUGCGCCUGAAAGAGAGAAGUGAACCAGAGAAACACACGUCGUGGUAUAUUACCUGGUA, the self-cleavage was 0.679. With GUCCUCUUUCACGUGCGCCUGAAAGAGAGAAGUGAACCAGAGAAACACACGUUGUGGUAUAUUAGCUGGUA the self-cleavage was 0.25. GUCCUCUUUCACGUGCGCUUGAAAGAGAGAAGUGCACCAGAGAAACACACGUUGUGGUAUAUUACCUGGUA showed a self-cleavage of 0.809. GUCCUCUUUCACGUGCGCUUGAAAGAGAGCAGUGAACCAGAGAAACACACGUUGUGGUAUAUUACCUGGUA gave a self-cleavage of 0.128. For GUCCUCUUUCACGUGCGCCUGAAAGAGAGAAGUGAACCAGAGAAACACACGUUGUGGUAUAUUACCUGUUA, the self-cleavage was 0.212. GUCCUCUUUCACGUGCGCCUGAAAGAGAGAAGUGAACCAGAGAAACACACGUUCUGGUAUAUUACCUGGUA gave a self-cleavage of 0.406. GUCCUCUUUCACGUGCGCCUGAAAGAGACAAGUGAACCAGAGAAACACACGUUGUGGUAUAUUACCUGGUA gave a self-cleavage of 0.111. Variant GUCCUCUUUCACGUGCGCCUGAAAGAGAGAAGUGAACCAGAGAAACACACGUUGUGGAAUAUUACCUGGUA has a self-cleavage of 0.569. For GUCCUCUUUCACGUGCGCUUGAAAGAGAGAAGUGAACCAGAGACACACACGUUGUGGUAUAUUACCUGGUA, the self-cleavage was 0.275. Work on GUCCUCUUUCACGUGCGCCUGAAAGAUAGAAGUGAACCAGAGAAACACACGUUGUGGUAUAUUACCUGGUA yielded a self-cleavage of 0.27. GUCCUCUUUCACGUGCGCCUGAAAGAAAGAAGUGAACCAGAGAAACACACGUUGUGGUAUAUUACCUGGUA gave a self-cleavage of 0.361. GUCCUCUUUCACGUGCGCCUGAAAGACAGAAGUGAACCAGAGAAACACACGUUGUGGUAUAUUACCUGGUA showed a self-cleavage of 0.133. In the case of GUCCUCUUUCACGUGCGCCUGAAAUAGAGAAGUGAACCAGAGAAACACACGUUGUGGUAUAUUACCUGGUA, the self-cleavage is reported as 0.623. GUCCUCUUUCACGUGCGCCUGAAAAAGAGAAGUGAACCAGAGAAACACACGUUGUGGUAUAUUACCUGGUA showed a self-cleavage of 0.512. For GUCCUCUUUCACGUGCGCCUGAAAGAGAGAAGUGAACCAGAGAAACACACGGUGUGGUAUAUUACCUGGUA, the self-cleavage was 0.898. Variant GUCCUCUUUCACGUGCGCCUGAAAGAGAGAACUGAACCAGAGAAACACACGUUGUGGUAUAUUACCUGGUA has a self-cleavage of 0.0926. For GUCCUCUUUCACGUGCGCCUGAAAGAGAGAAGUGAACCAGAGAAACACACGUUGUUGUAUAUUACCUGGUA, the self-cleavage was 0.0712. Variant GUCCUCUUUCACGUGCGCUUGAAAGAGAGAGGUGAACCAGAGAAACACACGUUGUGGUAUAUUACCUGGUA has a self-cleavage of 0.624. For GUCCUCUUUCACGUGCGCCUGAAAGAGAGAAGUGAACCAGAGAAACACACGUUGUGGUAUACUACCUGGUA, the self-cleavage was 0.283. Work on GUCCUCUUUCACGUGCGCCUGAAAGAGAGAAGUGAACCAGAGAAACACACGUUGUGGUAUAAUACCUGGUA yielded a self-cleavage of 0.228. Variant GUCCUCUUUCACGUGCGCUUGAAAGGGAGAAGUGAACCAGAGAAACACACGUUGUGGUAUAUUACCUGGUA has a self-cleavage of 0.849. Work on GUCCUCUUUCACGUGCGCUUGAAAGCGAGAAGUGAACCAGAGAAACACACGUUGUGGUAUAUUACCUGGUA yielded a self-cleavage of 0.238. GUCCUCUUUCACGUGCGCCUCAAAGAGAGAAGUGAACCAGAGAAACACACGUUGUGGUAUAUUACCUGGUA gave a self-cleavage of 0.493. With GUCCUCUUUCACGUGCGCCUGAAAGAGAGAAGUGAACCAGAGAAACACACGUUGUGGUAUAUGACCUGGUA the self-cleavage was 0.123. For GUCCUCUUUCACGUGCGCCUGAAAGAGAGAAGUGAACCAGAGAAACACACGUUGUGGUAUAUAACCUGGUA, the self-cleavage was 0.107. In the case of GUCCUCUUUCACGUGCGCCUGAAAGAGAGAAGUGAACCAGAGAAACACACGUUGUGGUAUAUCACCUGGUA, the self-cleavage is reported as 0.168. In the case of GUCCUCUUUCACGUGCGCCUGAAAGAGAGAAGUAAACCAGAGAAACACACGUUGUGGUAUAUUACCUGGUA, the self-cleavage is reported as 1.08. Work on GUCCUCUUUCACGUGCGCUUGCAAGAGAGAAGUGAACCAGAGAAACACACGUUGUGGUAUAUUACCUGGUA yielded a self-cleavage of 0.625. Variant GUCCUCUUUCACGUGCGCUUGGAAGAGAGAAGUGAACCAGAGAAACACACGUUGUGGUAUAUUACCUGGUA has a self-cleavage of 0.715. For GUCCUCUUUCACGUGCGCUUGAGAGAGAGAAGUGAACCAGAGAAACACACGUUGUGGUAUAUUACCUGGUA, the self-cleavage was 0.932. Variant GUCCUCUUUCACGUGCGCUUGAAAGAGAGAAGUGAACCAGUGAAACACACGUUGUGGUAUAUUACCUGGUA has a self-cleavage of 1.24.
